# Laboratory results reported in patent publication US20240383974A1 (BETTA PHARMACEUTICALS, published 2024).
# Positions count from the first letter of the chain named.
# B1: antibody Ahu (VHH)
# VHH: QVQLVESGGGVVQPGGSLRLSCAASGRSFSSSGMGWFRQAPGKGREFVATINSSGGDTYYRDSVEGRFTTSRDNSKNTMYLQMNSLRAEDTAVYYCAAKEGGGPSSIPAIYDYWGQGTLVTVSS
# notes: Humanized anti-PD-L1 nanobody
# B2: antibody Bhu (VHH)
# VHH: QVQLVESGGGVVQPGGSLRLSCAASGFTFSSYAMRWVRQAPGKGLEWVAGINTGSEIVVYANSVRGRFTISRDNSRDTLYLQMNSLRAEDTAVYYCATGLVSAEHDGIWGQGTQVTVSS
# notes: Humanized anti-PD-L1 nanobody
# B3: antibody D1hu (VHH)
# VHH: EVQLVESGGGLVQPGGSLRLSCTASGRDFLTYGMGWFRQAPGKELEFVASINWSGSMTYYADSVKGRFTISRDNAKNTVYLQMNSLRAEDTAVYICAARRGAVTYASSNEYEHWGQGTQVTVSS
# notes: Humanized anti-PD-L1 nanobody
# B4: antibody D2hu (VHH)
# VHH: B3 VHH with T23A, E44G, T78S
# notes: Humanized anti-PD-L1 nanobody
# B5: antibody A (VHH)
# VHH: B1 VHH with V11L, P14A, G44D, S75A, Y80S, S85D, R87K, A88P, L119Q
# notes: Anti-PD-L1 alpaca nanobody
# B6: antibody E (VHH)
# VHH: QVQLVESGGGLVQAGGSLRLSCAASGRSFSSSGMGWFRQAPGKDREFVATINSSGGDTYYADSVEGRFTTSRDNAKNTMSLQMNDLKPEDTAVYYCAAKEGGGPSSIPAIFDYWGQGTQVTVSS
# notes: Anti-PD-L1 alpaca nanobody
# B7: antibody B (VHH)
# VHH: B2 VHH with V11L, R19S, A23V, G44E, L45P, T69A, S75A, Y80F, R87K, A88P
# notes: Anti-PD-L1 alpaca nanobody
# B8: antibody D (VHH)
# VHH: B3 VHH with P14A, G16D, L45R, R87K, A88P, E89G
# notes: Anti-PD-L1 alpaca nanobody
# B9: antibody Chu (VHH)
# VHH: B3 VHH with T23A, E44G, L45R, R87K, Q119L
# notes: Humanized anti-PD-L1 nanobody
# B10: antibody C (VHH)
# VHH: B3 VHH with L11S, P14T, T23V, L45R, R87K, A88P, E89G
# notes: Anti-PD-L1 alpaca nanobody
# B11: b202-L-Bhu (bispecific antibody)
# heavy: not shown
# light: DIVLTQSPDSLAVSLGERATINCRASESVTIIGTNLIQWFQQKPGQPPKLLIYHASNLETGVPDRFSGSGSRTDFTLTISSLQAEDVAVYYCLQSRQIPRTFGGGTKVEIKRTVAAPSVFIFPPSDEQLKSGTASVVCLLNNFYPREAKVQWKVDNALQSGNSQESVTEQDSKDSTYSLSSTLTLSKADYEKHKVYACEVTHQGLSSPVTKSFNRGECGGGGSGGGGSGGGGSGGGGSQVQLVESGGGVVQPGGSLRLSCAASGFTFSSYAMRWVRQAPGKGLEWVAGINTGSEIVVYANSVRGRFTISRDNSRDTLYLQMNSLRAEDTAVYYCATGLVSAEHDGIWGQGTQVTVSS
# B12: b202-H-Bhu-D2hu (bispecific antibody)
# heavy: not shown
# light: DIVLTQSPDSLAVSLGERATINCRASESVTIIGTNLIQWFQQKPGQPPKLLIYHASNLETGVPDRFSGSGSRTDFTLTISSLQAEDVAVYYCLQSRQIPRTFGGGTKVEIKRTVAAPSVFIFPPSDEQLKSGTASVVCLLNNFYPREAKVQWKVDNALQSGNSQESVTEQDSKDSTYSLSSTLTLSKADYEKHKVYACEVTHQGLSSPVTKSFNRGEC
# notes: Tandem architecture and constant regions as noted for b301-H-Bhu-D2hu
# B13: b305-H-Bhu-D2hu (bispecific antibody)
# heavy: not shown
# light: DIQMTQSPSSLSASVGDRVTITCRASQEISGYLSWLQQKPGGAPKRLIYAASTLDSGVPSRFSGSRSGTDYTLTISSLQPEDFATYYCLQYASYPTCTFGGGTKVEIKRTVAAPSVFIFPPSDEQLKSGTASVVCLLNNFYPREAKVQWKVDNALQSGNSQESVTEQDSKDSTYSLSSTLTLSKADYEKHKVYACEVTHQGLSSPVTKSFNRGEC
# notes: as for B12
# B14: antibody m301-hu (antibody, V domains shown)
# VH: QVQLQESGPGLVKPSGTLSLTCAVSGFSLTTYGVTWVRQPPGKGLEWIGLIWGDGTTDYHSTFISRLTISKDKSKNQVSLKLSSVTAADTAVYYCASYYFAMHYWGQGTLVTVSS
# VL: DIVMTQSPDSLAVSLGERATINCKSSQSLLNSRTQKNYLAWYQQKPGQSPKLLIYWASTRESGVPDRFSGSGSGTDFTLTISSLQAEDVAVYYCKQSYNLWTFGGGTKVEIK
# notes: Humanized m301
# B15: antibody m202-hu (antibody, V domains shown)
# VH: QVQLVQSGAEVKKPGASVKVSCKASGYTFTSYWMHWVKQAPGQGLEWIGNINPSNGDTNYNEKFKSKATLTVDKSTSTAYMELRSLRSDDTAVYYCARATYGSYGYFDVWGQGTLVTVSS
# VL: DIVLTQSPDSLAVSLGERATINCRASESVTIIGTNLIQWFQQKPGQPPKLLIYHASNLETGVPDRFSGSGSRTDFTLTISSLQAEDVAVYYCLQSRQIPRTFGGGTKVEIK
# notes: Humanized m202
# B16: antibody m109-hu (antibody, V domains shown)
# VH: EVQLVESGGGLVQPGGSLRLSCATSGFTFSDYYMYWVRQTPEKRLEWVAYISNGGGRTYYPDTVKGRFTISRDNAKNSLYLQMSRLRAEDTAVYYCARQKTNYGNYEEDYYAMGYWGQGTSVTVSS
# VL: DIVLTQSPASLAVSLGQRATITCRASKSVSTSGYSYIHWYQQKPGQPPKLLIYLASNLESGVPARFSGSGSGTDFTLTINPVEEEDAATYYCQHSRELPLTFGAGTKLEIK
# notes: Humanized m109
# B17: antibody m107-hu (antibody, V domains shown)
# VH: QVQLVQSGAEVKRPGASVKVSCKASGYTFSAYTIHWVKQRPGQGLEWIGYINPSNDFAKYIQKFKDKVTITADKSTSTAYMELNSLRSEDTAVYYCARVDYYGGSYRWYLDVWGQGTTVTVSS
# VL: DIVLTQSPATLSLSPGERATLSCRASQSISNNLHWYQQKPGEAPRLLIKYTSQSISGIPARFSGSGSGTDFTLTISSLEPEDFAVYFCQQSNSWPIFTFGQGTKLEIK
# notes: Humanized m107
# Target: T1, human PD-L1 (human, UniProt Q9NZQ7 19-290)
# T1 construct: whole, on cells; also called hPD-L1; PD-L1 antigen on MDA-MB-231 cells
# T1 sequence (Q9NZQ7 19-290): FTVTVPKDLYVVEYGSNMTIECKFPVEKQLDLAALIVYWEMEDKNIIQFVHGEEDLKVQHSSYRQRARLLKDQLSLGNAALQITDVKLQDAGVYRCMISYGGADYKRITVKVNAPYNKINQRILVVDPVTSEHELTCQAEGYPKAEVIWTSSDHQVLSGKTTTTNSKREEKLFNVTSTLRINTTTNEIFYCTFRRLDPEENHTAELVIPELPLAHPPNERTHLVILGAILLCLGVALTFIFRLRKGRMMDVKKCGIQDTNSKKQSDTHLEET
# Assay: FACS on PD-L1-expressing cells, similar method
row,EC50 [nM],Binder
1,0.051,B1
2,0.18,B2
3,0.18,B3
4,0.29,B4

# Target: PD-L1-Biotin (UniProt Q9NZQ7 19-238, limits assumed, biotin label (site not stated))
# Sequence (Q9NZQ7 19-238 limits assumed): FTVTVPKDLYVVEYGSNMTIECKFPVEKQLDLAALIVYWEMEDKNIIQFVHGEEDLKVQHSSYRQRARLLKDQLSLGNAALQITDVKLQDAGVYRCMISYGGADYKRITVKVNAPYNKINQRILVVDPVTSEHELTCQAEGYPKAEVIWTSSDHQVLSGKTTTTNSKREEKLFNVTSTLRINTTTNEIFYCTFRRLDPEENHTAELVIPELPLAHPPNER
# Assay: competitive FACS: blocks PD-L1-Biotin binding to 293T-PD-1 cells
row,IC50 [nM],Binder
1,1.02,B5
2,4,B1
3,2.54,B6
4,2.08,B7
5,3.4,B2
6,2.6,B3
7,2.1,B8
8,1,B9
9,1.68,B10
10,12,B4

# Target: T1, human PD-L1
# Assay: FACS on MDA-MB-231 cells (endogenous PD-L1)
row,EC50 [nM],Binder
1,0.089,B5
2,0.053,B6
3,0.031,B7
4,0.039,B8
5,0.042,B10

# Target: T2, GARP-TGF-β complex (293-GARP/TGFβ stably transfected cells) (UniProt Q14392 20-662; P01137 30-390)
# T2 construct: whole, on cells; Complex of GARP and (latent) TGF-β on the cell surface; also called 293-GARP/TGFβ cell; 293F-GAPR/TGFβ/αvβ6 cells
# T2 sequence (Q14392 20-662, chain 1 of 2): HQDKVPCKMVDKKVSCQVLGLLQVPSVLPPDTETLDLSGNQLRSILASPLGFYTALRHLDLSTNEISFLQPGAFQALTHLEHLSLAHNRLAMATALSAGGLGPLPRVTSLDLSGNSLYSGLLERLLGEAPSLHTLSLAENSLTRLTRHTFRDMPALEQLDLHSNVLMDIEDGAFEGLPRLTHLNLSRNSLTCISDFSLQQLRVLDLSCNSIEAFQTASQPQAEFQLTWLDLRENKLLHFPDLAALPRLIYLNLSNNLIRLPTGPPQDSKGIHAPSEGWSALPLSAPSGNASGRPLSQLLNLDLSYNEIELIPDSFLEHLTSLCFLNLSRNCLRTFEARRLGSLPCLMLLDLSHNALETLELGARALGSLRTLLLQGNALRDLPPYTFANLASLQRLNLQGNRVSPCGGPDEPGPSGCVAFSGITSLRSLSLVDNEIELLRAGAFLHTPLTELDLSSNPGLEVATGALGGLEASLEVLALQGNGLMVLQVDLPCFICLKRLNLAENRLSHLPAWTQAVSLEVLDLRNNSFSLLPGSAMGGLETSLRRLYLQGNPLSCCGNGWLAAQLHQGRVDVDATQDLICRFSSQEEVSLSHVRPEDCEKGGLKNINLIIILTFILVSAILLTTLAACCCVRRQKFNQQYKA
# T2 sequence (P01137 30-390, chain 2 of 2): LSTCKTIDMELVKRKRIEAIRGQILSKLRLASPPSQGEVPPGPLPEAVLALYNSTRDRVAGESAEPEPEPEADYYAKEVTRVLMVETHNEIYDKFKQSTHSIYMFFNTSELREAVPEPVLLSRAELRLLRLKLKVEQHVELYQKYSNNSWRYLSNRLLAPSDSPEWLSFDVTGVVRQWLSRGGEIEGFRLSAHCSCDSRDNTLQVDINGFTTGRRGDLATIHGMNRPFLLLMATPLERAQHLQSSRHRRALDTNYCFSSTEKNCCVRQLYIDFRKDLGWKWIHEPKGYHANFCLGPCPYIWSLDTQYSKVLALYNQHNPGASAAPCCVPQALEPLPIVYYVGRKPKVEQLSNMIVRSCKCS
# Assay: FACS on 293-GARP/TGFβ cells
row,EC50 [nM],Binder
1,1.6,B11
2,1.5,B12
3,4.4,B13

# Target: T3, human transforming growth factor β1 (human, UniProt P01137 279-390)
# T3 construct: Coated on the ELISA plate at 100 ng/well; also called hTGF-β1; TGF-β
# T3 sequence (P01137 279-390 limits assumed): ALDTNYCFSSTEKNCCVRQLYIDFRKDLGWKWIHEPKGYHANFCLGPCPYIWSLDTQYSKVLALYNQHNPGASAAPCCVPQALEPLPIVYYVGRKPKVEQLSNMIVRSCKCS
# Assay: ELISA, plate-coated hTGF-β1
row,EC50 [nM],Binder
1,< 2,B14
2,< 2,B15
3,0.73,B16
4,7.5,B17

# Target: T2, GARP-TGF-β complex (293-GARP/TGFβ …)
# Assay: FACS on 293-GARP/TGFβ cells
# Remark: another data set of the same source
row,EC50 [nM],Binder
1,4,B14
2,2.5,B15
3,> 5,B16
4,7.5,B17

# Target: T1, human PD-L1
# Assay: competitive FACS: blocks human-CD80-mFc binding to 293T-PD-L1 cells
row,IC50 [nM],Binder
1,3.95,B5
2,~1.8,B1
3,2.98,B6
4,3.35,B7
5,~1.7,B2
6,~1.5,B3
7,4.76,B8
8,~3.2,B9
9,4.15,B10

# Target: T1, human PD-L1
# Assay: FACS on MC38-hPD-L1 cells
row,Binder,binding result
1,B14,no binding (tested: initial concentration 200 nM)
2,B15,no binding (tested: initial concentration 200 nM)
